This note sets out measurements from patent US20240368249A1 (INTERVET, published 2024).

For experiment [1], the target named is canine IL-31Rα (canine). The experiment is described as follows: ELISA, plate coated with cIL-31Rα at 1 µg/mL, detection with HRP anti-dog IgG Fc, OD450/540nm. A general note: ELISA stands for enzyme-linked immunosorbent assay.
Experiment [2] deals with canine IL-31Rα (canine). The experiment is described as follows: ELISA, plate coated with cIL-31Rα at 1 µg/mL, detection with HRP anti-dog IgG Fc, OD450/540.
The target in a further experiment is T1, canine IL-13 (canine, UniProt Q9N0W9 19-131, limits assumed, biotin-labeled in the OCTET assay).
T1 construct: also called cIL-13; canine Interleukin-13
T1 sequence (looked up): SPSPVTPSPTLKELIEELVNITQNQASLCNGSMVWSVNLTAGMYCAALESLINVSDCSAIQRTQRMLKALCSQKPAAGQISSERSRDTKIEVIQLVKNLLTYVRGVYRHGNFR
In words: BLI (OCTET HTX), biotin-cIL-13 on SA biosensors. How it is done:
The binding constants for the cFc fusion proteins provided in Tables 3 and 4 below, were determined using OCTET® HTX. All kinetics measurements were performed by OCTET® HTX using SA® biosensors and DATA ACQUISITION® 12.0 software. 10 μg/mL of biotin-labeled antigen, either canine IL-4 (cIL-4) or canine IL-13 (cIL-13) were loaded onto the SA® biosensors for 120 seconds. Next, the biosensors were placed into 1×pH 7.0 TBS/Casein buffer for 60 seconds for the blocking phase. For the association phase, antigen loaded biosensors were placed into 2-fold serial dilutions from 1 μM down to 15.6 nM of the wild-type, the bispecific, or the FcRn-mutant receptor Fc-fusions that recognized the cIL-4 or cIL-13 antigen in 1×pH 7.0 TBS/Casein buffer for 30 seconds. The last well was buffer alone and that sensor was used for reference sensor subtraction. Finally, the biosensors were placed into 1×pH 7.0 TBS/Casein buffer for 120 seconds for the dissociation phase. The results were then analyzed using Data Analysis 12.0 software and the curves were fitted using a 1:1 binding model.

B1: Chimeric rat/canine 10A12 (antibody, V domains shown)
VH: EVQLVESGGGLVKPGRSMKLSCAASGFTFSNYYMAWVRQAPTKGLEWVASISTGGGNTYYRDSVKGRFTISRDNAKRTLYLQMDSLRSEDTATYYCGRHGTLYFDYWGQGVMVTVSS
VL: QFTLTQPKSVSGSLRSTITIPCERSSGDIGDSYVSWYQQHLGRPPINVIYVDDQRPSEVSDRFSGSIDSSSNSASLTITDLQMDDEADYFCQSYDSNIDGPVFGGGTKLTVLG
The term EC50 denotes the concentration at which the effect is half-maximal. High values mean a need for much substance, low ones an effect from little substance. B1: the concentration for a half-maximal effect (EC50) with canine IL-31Rα (canine) [1] was found to be 0.518 ng/mL.

B2: Caninized 28F12 H1k3 (antibody, V domains shown)
VH: EVQLVESGGDLVKPGGSLRLSCVASGFTFSDYYMAWVRQAPGKGLQWVATISYDGSSTYYRDSVRGRFTISRDNAKNTLYLQMNSLRAEDTAMYYCAKGPLTDWAPNWFAYWGQGTLVTVSS
VL: DIVMTQSPASLSLSQEEKVTITCQTSEDIYSGLAWYQQKPGQAPKLLIYGASRLEDGVPSRFSGSGSGTDFSFTISSLEPEDVAVYFCQQGLKYPNTFGAGTKVELKR
With B2, the EC50 with canine IL-31Rα (canine) [2] amounted to 1.74 ng/mL.

B3: Caninized 28F12 H2k3 (antibody, V domains shown)
VH: EVQLVESGGDLVKPGGSLRLSCAASGFTFSDYYMAWVRQAPGKGLQWVATISYDGSSTYYRDSVRGRFTISRDNAKNTLYLQMNSLRAEDTAMYYCARGPLTDWAPNWFAYWGQGTLVTVSS
VL: DIVMTQSPASLSLSQEEKVTITCQTSEDIYSGLAWYQQKPGQAPKLLIYGASRLEDGVPSRFSGSGSGTDFSFTISSLEPEDVAVYFCQQGLKYPNTFGAGTKVELKR
With B3, the EC50 with canine IL-31Rα (canine) [2] turned out to be 1.74 ng/mL.

B4: Caninized 28F12 H2k2 (antibody, V domains shown)
VH: EVQLVESGGDLVKPGGSLRLSCAASGFTFSDYYMAWVRQAPGKGLQWVATISYDGSSTYYRDSVRGRFTISRDNAKNTLYLQMNSLRAEDTAMYYCARGPLTDWAPNWFAYWGQGTLVTVSS
VL: EIVMTQSPASLSLSQEEKVTITCQTSEDIYSGLAWYQQKPGQAPKLLIYGASRLEDGVPSRFSGSGSGTDFSFTISSLEPEDVAVYYCQQGLKYPNTFGAGTKVELKR
B4 had an EC50 in the experiment with canine IL-31Rα (canine) [2] of 1.74 ng/mL.

B5: cIL-13Rα1-cIgGB-Fc-YTE CH2 Numbering (L18Y/A20T/T22E) (Fc fusion)
chain: GGVAAPTETQPPVTNLSVSVENLCTVIWTWDPPEGASPNCTLRYFSHFDNKQDKKIAPETHRSKEVPLNERICLQVGSQCSTNESDNPSILVEKCTPPPEGDPESAVTELQCVWHNLSYMKCTWLPGRNTSPDTNYTLYYWHSSLGKILQCEDIYREGQHIGCSFALTNLKDSSFEQHSVQIVVKDNAGKIRPSFNIVPLTSHVKPDPPHIKRLFFQNGNLYVQWKNPQNFYSRCLSYQVEVNNSQTETNDIFYVEEAKCQNSEFEGNLEGTICFMVPGVLPDTLNTVRIRVRTNKLCYEDDKLWSNWSQAMSIGENTDPTPKRENGRVPRPPDCPKCPAPEMLGGPSVFIFPPKPKDTLYITREPEVTCVVVDLDPEDPEVQISWFVDGKQMQTAKTQPREEQFNGTYRVVSVLPIGHQDWLKGKQFTCKVNNKALPSPIERTISKARGQAHQPSVYVLPPSREELSKNTVSLTCLIKDFFPPDIDVEWQSNGQQEPESKYRTTPPQLDEDGSYFLYSKLSVDKSRWQRGDTFICAVMHEALHNHYTQESLSHSPGK
notes: Homodimer; also called cIL-13Rα1-cFc-YTE
Turning to B5, the “fold decrease in affinity against the unmodified cIL-13Rα1-cFc” value in the experiment with canine IL-13 is around 4 fold decrease.

B6: cIL-13Rα2-cIgGB-Fc-YD CH2 Numbering (L18Y/T22D) (Fc fusion)
chain: SMLSNAEIKVNPPQDFEIVDPGYLGYLSLQWQPPLFPDNFKECTIEYELKYRNIDSENWKTIITKNLHYKDGFDLNKGIEAKINTLLPAQCTNGSEVRSSWAETTYWTSPQGNRETKIQDMDCVYYNWQYLVCSWKPGMGVHFDTNYQLFYWYEGLDHSAECTDYIKVNGKNMGCRFPYLESSDYKDFYICVNGSSESQPIRPSYFIFQLQNIVKPMPPDYLSLTVKNSEEINLKWNMPKGPIPAKCFIYEIEFTEDGTTWVTTTVENEIQITRTSNESQKLCFLVRSKVNIYCSDDGIWSEWSDEQCWKGDIWKETPKRENGRVPRPPDCPKCPAPEMLGGPSVFIFPPKPKDTLYIARDPEVTCVVVDLDPEDPEVQISWFVDGKQMQTAKTQPREEQFNGTYRVVSVLPIGHQDWLKGKQFTCKVNNKALPSPIERTISKARGQAHQPSVYVLPPSREELSKNTVSLTCLIKDFFPPDIDVEWQSNGQQEPESKYRTTPPQLDEDGSYFLYSKLSVDKSRWQRGDTFICAVMHEALHNHYTQESLSHSPGK
notes: Homodimer; also called cIL-13Rα2-cFc-YD
As for B6, the “factor of decrease of KD against the unmodified cIL-13Rα2-cFc” value in the experiment with canine IL-13 is around 2 fold lower KD.

B7: cIL-13Rα2-cIgGB-Fc-YTE CH2 Numbering (L18Y/A20T/T22E) (Fc fusion)
chain: SMLSNAEIKVNPPQDFEIVDPGYLGYLSLQWQPPLFPDNFKECTIEYELKYRNIDSENWKTIITKNLHYKDGFDLNKGIEAKINTLLPAQCTNGSEVRSSWAETTYWTSPQGNRETKIQDMDCVYYNWQYLVCSWKPGMGVHFDTNYQLFYWYEGLDHSAECTDYIKVNGKNMGCRFPYLESSDYKDFYICVNGSSESQPIRPSYFIFQLQNIVKPMPPDYLSLTVKNSEEINLKWNMPKGPIPAKCFIYEIEFTEDGTTWVTTTVENEIQITRTSNESQKLCFLVRSKVNIYCSDDGIWSEWSDEQCWKGDIWKETPKRENGRVPRPPDCPKCPAPEMLGGPSVFIFPPKPKDTLYITREPEVTCVVVDLDPEDPEVQISWFVDGKQMQTAKTQPREEQFNGTYRVVSVLPIGHQDWLKGKQFTCKVNNKALPSPIERTISKARGQAHQPSVYVLPPSREELSKNTVSLTCLIKDFFPPDIDVEWQSNGQQEPESKYRTTPPQLDEDGSYFLYSKLSVDKSRWQRGDTFICAVMHEALHNHYTQESLSHSPGK
notes: Homodimer; also called cIL-13Rα2-cFc-YTE
B7: the “factor of decrease of KD against the unmodified cIL-13Rα2-cFc” value in the experiment with canine IL-13 was around 2 fold lower KD.

B8: Chimeric rat/canine 44E2 (antibody, V domains shown)
VH: QVQLKESGPGLVQPSQTLSLTCTVSGFSLTSNGVSWVRQPPGKGLEWIAAISSGGSTYYNSVLKSRLSISRDTSKSQVFLKMNSLQTEDTAIYFCTRRLSGYNYVPFAYWGQGTLVTVSS
VL: DIQMTQSPSLLSASVGDRVTLNCKASQNIYKHLAWCQQKLGEPPNLLISNANSLQTGIPSRFSGSGSGTDFTLTISSLQPEDVATYFCQQYYSGDTFGAGTKLELKR
Regarding B8, the EC50 in the experiment with canine IL-31Rα (canine) [2] came to 1.37 ng/mL.

B9: Caninized 10A12 H1L5 (antibody, V domains shown)
VH: EVQLVESGGDLVKPGGSLRLSCVASGFTFSNYYMAWVRQAPGKGLQWVASISTGGGNTYYRDSVKGRFTISRDNAKNTLYLQMNSLRAEDTAMYYCAKHGTLYFDYWGQGTLVTVSS
VL: QPVLTQPPSLSASLGTTARLTCERSSGDIGDSYVSWYQQKPGSPPRDLLYVDDQRPSGVSKSFSGSKDTSANAGLLLISGLQPEDEADYYCQSYDSNIDGPVFGGGTHLTVLG
Consider B9, for which the EC50 in the experiment with canine IL-31Rα (canine) [1] turned out to be 13.5 ng/mL.

B10: Chimeric rat/canine 28F12 (antibody, V domains shown)
VH: EVQLVESDGGLAQPGRSLKLSCAASGFTFSDYYMAWVRQAPTKGLEWVATISYDGSSTYYRDSVRGRFTISRDNAKSTLYLQMDSLRSEDTATYYCARGPLTDWAPNWFAYWGQGTLVTVSS
VL: DIQMTQSPASLSASLGETVTIQCQTSEDIYSGLAWYQQKPGKSPQFLIYGASRLEDGVPSRFSGSGSGTQYSLKISSMQTEDEGVYFCQQGLKYPNTFGAGTKLELKR
Usually EC50 (read off the curve) stands for the concentration at which the effect is half-maximal. In the experiment with canine IL-31Rα (canine) [2], B10 showed an EC50 of 1.66 ng/mL and an EC50 (read off the curve) of 1 ng/mL.

B11: Caninized 44E2 H5k1 (antibody, V domains shown)
VH: ELTLQESGPGLVKPSQTLSLTCTVSGFSLTSNGVSWIRQRPGRGLEWMGAISSGGSTYYNSVLKSRISITADTAKNQFSLQLSSMTTEDTAVYYCARRLSGYNYVPFAYWGQGTLVTVSS
VL: EIVMTQSPASLSLSQEEKVTITCKASQNIYKHLAWYQQKPGQAPKLLIYNANSLQTGVPSRFSGSGSGTDFSFTISSLEPEDVAVYYCQQYYSGDTFGAGTKVELKR
Take B11: the EC50 with canine IL-31Rα (canine) [2] came to 1.35 ng/mL.

B12: Caninized 44E2 H5k2 (antibody, V domains shown)
VH: ELTLQESGPGLVKPSQTLSLTCTVSGFSLTSNGVSWIRQRPGRGLEWMGAISSGGSTYYNSVLKSRISITADTAKNQFSLQLSSMTTEDTAVYYCARRLSGYNYVPFAYWGQGTLVTVSS
VL: EIVMTQSPASLSLSQEEKVTITCKASQNIYKHLAWYQQKPGQAPKLLIYNANSLQTGIPSRFSGSGSGTDFSFTISSLEPEDVAVYFCQQYYSGDTFGAGTKVELKR
For the molecule B12, the EC50 in the experiment with canine IL-31Rα (canine) [2] was found to be 3.97 ng/mL. Compared with the last molecule, the EC50 is about 2.9-fold higher.
